Experimental data: patent US20170313754A1 (PROTAGONIST THERAPEUTICS, published 2017)
Bridge positions count the residues as written; N and C are the ends. Square brackets hold non-standard residues; d marks the D form. * marks the point of attachment. Palmitoyl = CCCCCCCCCCCCCCCC(=O)*; pGlu = O=C1CC[C@@H](C(=O)O)N1; Isovaleryl = CC(C)CC(=O)*; βAla = NCCC(=O)O; Sar = CNCC(=O)O

T1: human ferroportin (SLC40A1) fused in frame with GFP, stably expressed in HEK293 cells (human, UniProt Q9NP59 1-571)
T1 sequence (looked up): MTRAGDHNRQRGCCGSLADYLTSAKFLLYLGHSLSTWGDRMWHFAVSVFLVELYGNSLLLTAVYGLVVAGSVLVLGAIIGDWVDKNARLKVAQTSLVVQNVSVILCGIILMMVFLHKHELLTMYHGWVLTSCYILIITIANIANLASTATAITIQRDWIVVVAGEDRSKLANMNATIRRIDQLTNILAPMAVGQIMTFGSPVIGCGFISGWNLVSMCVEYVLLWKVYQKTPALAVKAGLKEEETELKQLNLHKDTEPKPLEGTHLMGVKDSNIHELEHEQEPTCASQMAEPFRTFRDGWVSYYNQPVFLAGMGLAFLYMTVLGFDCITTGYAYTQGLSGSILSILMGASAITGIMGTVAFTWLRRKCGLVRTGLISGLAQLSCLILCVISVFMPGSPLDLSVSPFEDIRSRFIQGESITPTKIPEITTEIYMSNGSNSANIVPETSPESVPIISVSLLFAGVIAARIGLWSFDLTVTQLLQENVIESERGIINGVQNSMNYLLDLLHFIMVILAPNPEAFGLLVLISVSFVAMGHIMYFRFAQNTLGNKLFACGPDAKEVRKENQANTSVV

T2: human ferroportin (SLC40A1) fused in frame with GFP, stably expressed on HEK293 cells (human, UniProt Q9NP59 1-571)
T2 sequence (looked up): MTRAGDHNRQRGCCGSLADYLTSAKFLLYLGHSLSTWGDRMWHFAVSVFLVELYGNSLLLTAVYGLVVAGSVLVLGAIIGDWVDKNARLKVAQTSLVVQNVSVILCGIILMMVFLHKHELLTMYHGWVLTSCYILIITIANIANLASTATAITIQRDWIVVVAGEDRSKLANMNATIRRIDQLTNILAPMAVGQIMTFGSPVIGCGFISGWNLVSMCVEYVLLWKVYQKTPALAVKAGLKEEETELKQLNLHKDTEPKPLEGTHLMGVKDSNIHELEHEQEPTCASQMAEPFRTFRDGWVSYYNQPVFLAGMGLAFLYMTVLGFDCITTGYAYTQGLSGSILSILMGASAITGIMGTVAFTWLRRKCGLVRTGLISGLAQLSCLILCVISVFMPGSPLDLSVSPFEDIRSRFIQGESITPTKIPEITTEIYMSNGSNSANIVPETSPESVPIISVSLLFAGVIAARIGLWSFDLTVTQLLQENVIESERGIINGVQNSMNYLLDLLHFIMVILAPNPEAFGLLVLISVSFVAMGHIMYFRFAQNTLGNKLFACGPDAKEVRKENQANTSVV


biological target: T1, human ferroportin (SLC40A1) fused in …; assay: cell-based or functional assay

Potency EC50 (nM) | Potency EC50 [nM] | Binder
> 1000 | – | H-DTHF[βAla]CIIFGPRSKGWVCK-NH2 (disulfide 6-18 (inferred)) [Hy-DTHF-[β-Ala]-CIIFGPRSKGWVCK-NH2]
> 10000 | – | Isovaleryl-THFPCIIFGPRSKGWVCK-NH2 (disulfide 5-17 (inferred)) [Isovaleric acid-THFPCIIFGPRSKGWVCK-NH2]
> 10000 | – | Isovaleryl-HFPCIIFGPRSKGWVCK-NH2 (disulfide 4-16 (inferred)) [Isovaleric acid-HFPCIIFGPRSKGWVCK-NH2]
– | 2 | Isovaleryl-DTHFPCIKFGPK(Palmitoyl)SKGWVCK-NH2 (not fully specified (bridges); cysteine pairing not given here) [Isovaleric acid-DTHFPCIKFGP-K(Palm)-SKGWVCK-NH2]
– | 260 | [pGlu]THFPICIFVCHRSKGCYRRCR-NH2 (disulfide 11-17, 7-21; SMILES CC[C@H](C)[C@@H]1NC(=O)[C@@H](NC(=O)[C@@H](NC(=O)[C@@H]2CCCN2C(=O)[C@H](Cc2ccccc2)NC(=O)[C@H](Cc2c[nH]cn2)NC(=O)[C@@H](NC(=O)[C@@H]2CCC(=O)N2)[C@@H](C)O)[C@@H](C)CC)CSSC[C@@H](C(=O)N[C@@H](CCCNC(=N)N)C(N)=O)NC(=O)[C@H](CCCNC(=N)N)NC(=O)[C@H](CCCNC(=N)N)NC(=O)[C@H](Cc2ccc(O)cc2)NC(=O)[C@@H]2CSSC[C@H](NC(=O)[C@H](C(C)C)NC(=O)[C@H](Cc3ccccc3)NC1=O)C(=O)N[C@@H](Cc1c[nH]cn1)C(=O)N[C@@H](CCCNC(=N)N)C(=O)N[C@@H](CO)C(=O)N[C@@H](CCCCN)C(=O)NCC(=O)N2) [pGlu-THFPIC1IFVC2HRSKGC2YRRC1R-NH2]
> 1000 | – | H-DTHFKCIIFGPRSKGWVCK-NH2 (disulfide 6-18 (inferred)) [Hy-DTHFKCIIFGPRSKGWVCK-NH2]
– | > 500 | DTHFPCIKFKPRSKGWVCK (IVA (isovaleric acid) on the side chain of Lys 10; C-terminal amide) [Hy-DTHFPCIKF-K(IVA)-PRSKGWVCK-NH2]
> 10000 | – | H-DTHFPCRRFGPRSKGWVC-NH2 (disulfide 6-18 (inferred)) [Hy-DTHFPCRRFGPRSKGWVC-NH2]
– | > 500 | H-DTHFPCIK(Isovaleryl)FGPRSKGWVCK-NH2 (disulfide 6-18 (inferred)) [Hy-DTHFPCI-K(IVA)-FGPRSKGWVCK-NH2]
> 10000 | – | H-HFPCIIFGPRSKGWVCK-NH2 (disulfide 4-16 (inferred)) [Hy-HFPCIIFGPRSKGWVCK-NH2]
– | 9 | DTHFPCIKFKPRSKGWVCK (N-terminal isovaleric acid; Palm on the side chain of Lys 10; C-terminal amide) [Isovaleric acid-DTHFPCIKF-K(Palm)-PRSKGWVCK-NH2]
> 10000 | – | H-THFPCIIFGPRSKGWVCK-NH2 (disulfide 5-17 (inferred)) [Hy-THFPCIIFGPRSKGWVCK-NH2]
> 1000 | – | H-DTHFRCIIFGPRSKGWVCK-NH2 (disulfide 6-18 (inferred)) [Hy-DTHFRCIIFGPRSKGWVCK-NH2]
> 1000 | – | H-DTHF[Sar]CIIFGPRSKGWVCK-NH2 (disulfide 6-18 (inferred)) [Hy-DTHF-[Sarc]-CIIFGPRSKGWVCK-NH2]
> 10000 | – | H-DTHFPIAIFGPRSKGWVAM-NH2 [Hy-DTHFPIAIFGPRSKGWVAM-NH2]
> 10000 | – | H-DTHFPCIIFVCHRSKGCYWAVCFW-NH2 (disulfide 11-17, 6-22; SMILES CC[C@H](C)[C@@H]1NC(=O)[C@@H](NC(=O)[C@@H]2CCCN2C(=O)[C@H](Cc2ccccc2)NC(=O)[C@H](Cc2c[nH]cn2)NC(=O)[C@@H](NC(=O)[C@@H](N)CC(=O)O)[C@@H](C)O)CSSC[C@@H](C(=O)N[C@@H](Cc2ccccc2)C(=O)N[C@@H](Cc2c[nH]c3ccccc23)C(N)=O)NC(=O)[C@H](C(C)C)NC(=O)[C@H](C)NC(=O)[C@H](Cc2c[nH]c3ccccc23)NC(=O)[C@H](Cc2ccc(O)cc2)NC(=O)[C@@H]2CSSC[C@H](NC(=O)[C@H](C(C)C)NC(=O)[C@H](Cc3ccccc3)NC(=O)[C@H]([C@@H](C)CC)NC1=O)C(=O)N[C@@H](Cc1c[nH]cn1)C(=O)N[C@@H](CCCNC(=N)N)C(=O)N[C@@H](CO)C(=O)N[C@@H](CCCCN)C(=O)NCC(=O)N2) [Hy-DTHFPC1IIFVC2HRSKGC2YWAVC1FW-NH2]
– | 264 | Isovaleryl-DTHF[βAla]CIIFGPRSKGWVCK-NH2 (not fully specified (bridges); cysteine pairing not given here) [Isovaleric acid-DTHF-[β-Ala]-CIIFGPRSKGWVCK-NH2]
> 1000 | – | H-DTHFGCIIFGPRSKGWVCK-NH2 (disulfide 6-18 (inferred)) [Hy-DTHFGCIIFGPRSKGWVCK-NH2]
– | 1 | Isovaleryl-DTHFPCIKFGPRSK(Palmitoyl)GWVCK-NH2 (disulfide 6-18 (inferred)) [Isovaleric acid-DTHFPCIKFGPRS-K(Palm)-GWVCK-NH2]

biological target: T2, human ferroportin (SLC40A1) fused in …; assay: cell-based or functional assay

Ferroportin internalization assay EC50 [nM] | percent at the stated concentration, ferroportin internalization assay | Binder
> 1000 | – | Isovaleryl-DTEFPCIKFEPRSKEWVCK-NH2 (disulfide 6-18 (inferred)) [Isovaleric acid-DTEFPCIKFEPRSKEWVCK-NH2]
– | 45 % at 10 uM | H-DTHKPCIIF-NH2 [Hy-DTHKPCIIF-NH2]
– | 8 % at 1 uM | H-DTHFPCIEY-NH2 [Hy-DTHFPCIEY-NH2]
> 1000 | – | Isovaleryl-DTHFECIIFGPRSKGWVCK-NH2 (not fully specified (bridges); cysteine pairing not given here) [Isovaleric acid-DTHFECIIFGPRSKGWVCK-NH2]
– | 85 % at 1 uM | H-DTHFPCILY-NH2 [Hy-DTHFPCILY-NH2]
– | 50 % at 10 uM | H-DTHFVCIIF-NH2 [Hy-DTHFVCIIF-NH2]
10 | – | DTHFPCIIFXPRSKGWVC (N-terminal isovaleric acid; Sarc at 10; N-MeTrp at 16; C-terminal amide) [Isovaleric acid-DTHFPCIIF-[Sarc]-PRSKG[N-MeTrp]-VC-NH2]
> 1000 | – | H-DTHFPCIDFGPRSKGWVCK-NH2 (disulfide 6-18 (inferred)) [Hy-DTHFPCIDFGPRSKGWVCK-NH2]
> 1000 | – | H-DTHFPCIIFAC-NH2 (disulfide 6-11 (inferred)) [Hy-DTHFPCIIFAC-NH2]
9 | – | DTHFPCIIFXPHSKGWVC (N-terminal isovaleric acid; Sarc at 10; N-MeTrp at 16; C-terminal amide) [Isovaleric acid-DTHFPCIIF-[Sarc]-PHSKG[N-MeTrp]-VC-NH2]
> 1000 | – | H-DTHFPCIIFGPRSRGHVCK-NH2 (not fully specified (bridges); printed as Hy-DTHFPCIIFGPRSRGHVCK-NH2; cysteine pairing not given here) [Hy-DTHFPCIIFGPRSRGHVCK-NH2]
– | 64 % at 10 uM | H-DPHFPCIIF-NH2 [Hy-DPHFPCIIF-NH2]
– | 75 % at 10 uM | H-DTHFPCIIY-NH2 [Hy-DTHFPCIIY-NH2]
> 1000 | – | H-DTHFPCIIFGPRSKGWNCK-NH2 (not fully specified (bridges); printed as Hy-DTHFPCIIFGPRSKGWNCK-NH2; cysteine pairing not given here) [Hy-DTHFPCIIFGPRSKGWNCK-NH2]
– | 23 % at 1 uM | H-DTHFPCIIT-NH2 [Hy-DTHFPCIIT-NH2]
> 1000 | – | Isovaleryl-DTHFGCIKFEPRSKEWVCK-NH2 (not fully specified (bridges); cysteine pairing not given here) [Isovaleric acid-DTHFGCIKFEPRSKEWVCK-NH2]
> 1000 | – | H-DTHFPCINFGPRSKGWVCK-NH2 (disulfide 6-18 (inferred)) [Hy-DTHFPCINFGPRSKGWVCK-NH2]
> 1000 | – | H-ATHFPCIIF-NH2 [Hy-ATHFPCIIF-NH2]
– | 59 % at 1 uM | H-DTHFPCIIFAA-NH2 [Hy-DTHFPCIIFAA-NH2]
> 1000 | – | H-ADHFPCIIF-NH2 [Hy-ADHFPCIIF-NH2]
